From article PMC3466254, “Cthrc1, a Novel Circulating Hormone Regulating Metabolism” (PLoS ONE, 2012)

Biological target: the molecule itself
Assay: non-reducing SDS-PAGE with autoradiography; 1 µl of plasma of Cthrc1 null mice taken 30 min after intra-arterial injection of purified 125I-Cthrc1; SDS-PAGE under non-reducing conditions, autoradiography

B1: rat Cthrc1 with a C terminal myc/6×His tag, labeled with 125I (natural protein, UniProt Q8CG08 33-245, looked up)
chain: SENPKVKQKALIRQREVVDLYNGMCLQGPAGVPGRDGSPGANGIPGTPGIPGRDGFKGEKGECLRESFEESWTPNYKQCSWSSLNYGIDLGKIAECTFTKMRSNSALRVLFSGSLRLKCRNACCQRWYFTFNGAECSGPLPIEAIIYLDQGSPELNSTINIHRTSSVEGLCEGIGAGLVDVAIWVGTCSDYPKGDASTGWNSVSRIIIEELPK
modifications: labeled with 125I (iodination tubes); residues not stated
notes: Cthrc1 (collagen triple helix repeat containing 1), rat; secreted into the conditioned medium; also called 125I-Cthrc1; 125I-labeled Cthrc1
  binding result: binds
